Measurements: the RNAGym collection of RNA variant scans (doi:10.1073/pnas.2313332121)
Variants at the floor of the assay were thinned out.

B1: TPR 5TU (parent)
chain: GGAUCUUCUCGAUCUAACAAAAAAGACAAAUCUGCCACAAAGCUUGAGAGCAUCUUCGGAUGCAGAGGCGGCAGCCUUCGGUGGCGCGAUAGCGCCAACGUUCUCAACUAUGACACGCAAAACGCGUGCUCCGUUGAAUGGAGUUUAUCAUG

Variants of: B1
Assay: polymerase ribozyme fitness, log enrichment relative to wild type (log ratio); higher = more active; in vitro selection for triplet polymerase activity
How it was run: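 Mutant libraries were PCR-built and transcribed for each subunit of a heterodimeric triplet polymerase ribozyme and selected for one round in triplicate at −7 °C, frozen, before gel excision of extended constructs and streptavidin-bead capture. Input and output libraries were Illumina-sequenced, keeping genotypes with ≥10 input reads and ≥1 read per output. Fitness is a logarithmic ratio of genotype to wild-type enrichment, in base 2, using inverse-variance-weighted replicate averages.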

Row | Variant | polymerase ribozyme fitness (log ratio)
1 | U53A A120G | -1.88
2 | U53A C79A A150U | ≤ -4.2
3 | C54A C99U | -1.85
4 | U53G A113C G133A | ≤ -4.2
5 | U53C G84A C95U | -0.536
6 | A52U G59A A98G C131U | -1.78
7 | U53A C69U A89G G94U C96U A115U U148G U151G | ≤ -4.2
8 | U53A G80U C96A G143A U146C C149G | ≤ -4.2
9 | C54A C63G C69G C76G U82C C131G | ≤ -4.2
10 | U53A U55A C79U A98U | ≤ -4.2
11 | C54A | -1.06
12 | C54G | -1.45
13 | U53G G117C A137G | -2.86
14 | C54G A60G G81A C93G C118U | ≤ -4.2
15 | U53A G83C | -2.61
16 | C54A U61A G67A C75A G80U C96A | ≤ -4.2
17 | C54G A91G | -4.01
18 | C54G A91U | ≤ -4.2
19 | U53A G81U G88A A115G A147U | ≤ -4.2
20 | U53C G94C A98C U148G | ≤ -4.2
21 | C54A G59U A91G U135A | -3.95
22 | U53A A97C | -0.583
23 | C54A A106C | -2.06
24 | U53A G58C A150U | 0.575

Row | Variant | polymerase ribozyme fitness (log ratio)
25 | U53A C85A G124U G143C U146C | ≤ -4.2
26 | C54A C96G C103U C116A G136U | -4.12
27 | C54A G58A G94A A98U | -0.552
28 | U53G A110G G117A U148A | ≤ -4.2
29 | A52U U56A C79G C105A | ≤ -4.2
30 | U53A G68U C76G U130A C132U G136A A142U | ≤ -4.2
31 | A52U C93U A119U G124U | -3.24
32 | U53A G83C C95U A97C G100A C116G | ≤ -4.2
33 | U53A G92A | -3.87
34 | U53A C54U G74U C75U G86U G141A | ≤ -4.2
35 | A52U G83A | -2.83
36 | U53A U78C U90G C96G | ≤ -4.2
37 | U53A C76A | -2.19
38 | U53A C76G | ≤ -4.2
39 | U53A A150C | -3.56
40 | U53A C75U G88C | ≤ -4.2
41 | U53A G86A | -2.07
42 | U53A A115G | -0.769
43 | U53A A115U | -2.87
44 | A52U G86U C105U | -1.83
45 | C54A C149G | -3.71
46 | U53A C54A C108G G140A | ≤ -4.2
47 | U53G G94C A115U | -3.49
48 | U53A A106U | -1.9

Row | Variant | polymerase ribozyme fitness (log ratio)
49 | U53G G84A | -2.52
50 | U53C A73G G84A U109G G140C | ≤ -4.2
51 | C54A U55A A106G G141A G143C C149G | ≤ -4.2
52 | A52U U144G A147C | -0.409
53 | U53A A98G U101G | -1.25
54 | C54A G67U | -4
55 | C54A C69U | -4.12
56 | U53G A119C A122C G141U | -0.69
57 | U53A C54U | -0.319
58 | U53A C54G | -2.2
59 | C54A G70U G94A | -4.02
60 | C54A U55G G58U G81C C85A | -2.41
61 | U53A G88C | ≤ -4.2
62 | U53A G100U | -3.41
63 | U53A G94A | -1.61
64 | C54A G67A G70C C72G A73C G74A C75G C87G C116G | ≤ -4.2
65 | C54A G65C C93G | ≤ -4.2
66 | U53C C57G C125U G143A | -3.67
67 | C54A C99A G141U | -2.47
68 | C54A U56A C93U A120G G126U | -2.38
69 | U53G G71C G86A G143U | ≤ -4.2
70 | U53A C118G | -2.5
71 | U53A G84C C99A U111A | ≤ -4.2
72 | A52U G83A C118U A121C | -2.33

Row | Variant | polymerase ribozyme fitness (log ratio)
73 | A52U C116A | 0.243
74 | C54A G59C G84A | -0.321
75 | U53A C63U C99G | -3.81
76 | U53C G86U C96A U146A | -2.73
77 | C54A G141A | -0.156
78 | U53A C75G C76U U82A C95U G128A | ≤ -4.2
79 | U53A U56A | -2.45
80 | U53A U56G | -1.11
81 | U53A A60U C63U C75U U77G C93G A122G C149G U151A | ≤ -4.2
82 | U53C G86A C95U | -1.78
83 | U53A C54A A91U | ≤ -4.2
84 | U53A C54A G58A C85U | -0.519
85 | U53G C57G G70C C79G A89U A91U C93U | ≤ -4.2
86 | A52U U53G U61A A91G U130G U144G | ≤ -4.2
87 | C54A U56G A110U U145G | ≤ -4.2
88 | U53G C87U A120C | -2.07
89 | U53G C87U A113U C116A G140U | ≤ -4.2
90 | U53A C96A | -2.37
91 | U53A C96U | -1.85
92 | U53A C93U U130G | ≤ -4.2
93 | U53A G58U C95A U144A C149A | ≤ -4.2
94 | U53A G62C C93A C118G G133A | ≤ -4.2
95 | U53A C79U A89G U134G | ≤ -4.2
96 | U53A A89C G94A G141C | -3.63

Row | Variant | polymerase ribozyme fitness (log ratio)
97 | U53A G80A U109A C123U A142G | -3.11
98 | U53G G58C U82G A138C U151A | ≤ -4.2
99 | A52U G83A U90C A106U U127A | ≤ -4.2
100 | U53A A91G G124A U139G U146A | -3.5
101 | U53C U56A A89U C93U G141U | -1.74
102 | U53A G83A C118A | -1.88
103 | U53A C95U | -0.368
104 | C54A C85A C105A | ≤ -4.2
105 | U53A U56A G152A | -4
106 | U53A G81C C87U C123A | -1.74
107 | C54A C87A | -4.19
108 | C54A C87U | -3.48
109 | U53A A119U | -2.1
110 | A52U G136A | -0.592
111 | U53A C103G | -3.95
112 | U53A A147G | -3.69
113 | C54G A97U A106C | -2.99
114 | U53A G58A | -0.0533
115 | U53A G58C | -1.52
116 | C54A C93U | -2.59
117 | U53A U130G A142C | -0.549
118 | C54A C85G C95G C114A U134G | ≤ -4.2
119 | A52U G84U G86A A91U A121U | ≤ -4.2
120 | A52U G58C U78A A122G | ≤ -4.2

Row | Variant | polymerase ribozyme fitness (log ratio)
121 | U53A C76U G83A | -1.6
122 | U53G G94U A98C | -2.12
123 | U53A C85U | -1.4
124 | C54A U78G U101G A107G C118A U130A | ≤ -4.2
125 | C54A A97U | -1.79
126 | U53A A137U | ≤ -4.2
127 | U53A U109G | -0.777
128 | C54A C87A C114A C116G | ≤ -4.2
129 | U53A A110C | ≤ -4.2
130 | U53A A89U | -0.481
131 | C54A G81C | -0.408
132 | C54A A91U G100A G141C | ≤ -4.2
133 | U53A U56A G70U C93U G141C | ≤ -4.2
134 | C54A A89U G92C A121U | -3
135 | A52U C96A | -2.92
136 | A52U G59C A91U | ≤ -4.2
137 | U53A C96U C105G G112C U146C | ≤ -4.2
138 | A52U C96U U101G U145G | -4.1
139 | C54A G92A G126U | -3.3
140 | C54A C57G U90G U139A G140U U146A | ≤ -4.2
141 | U53A U144C U145G | -1.92
142 | U53A U55A C57A C85G A122G | -2.51
143 | C54A G94C A138C | ≤ -4.2
144 | U53A U56C G141U | -0.733

Row | Variant | polymerase ribozyme fitness (log ratio)
145 | C54A C96G | -1.71
146 | C54A U55C C79A G86C C103G A147C | ≤ -4.2
147 | U53C C93G C99G C118A G126A U146G | ≤ -4.2
148 | A52U G80A | -3.35
149 | U53G C93A C95A A97U A98C G100U U130G G140U | ≤ -4.2
150 | A52U C87U C103U | -2.81
151 | C54A C96G C105U U144C | -2.85
152 | C54A C57A C87A A89G | ≤ -4.2
153 | U53A U56G C57U A73G C87A G143A | ≤ -4.2
154 | U53A U146G | -2.38
155 | C54G A66C G70C G100C | ≤ -4.2
156 | C54A G94U C123G C125A U134C | -3.75
157 | U53A G80C G143U | ≤ -4.2
158 | C54A U61A C69U C125A | ≤ -4.2
159 | U53A A73U | -2.21
160 | U53A C125U | -1.28
161 | U53G C54U C96U A98G G133C G141U | -4.03
162 | U53A C87U | -0.931
163 | C54A U127C | -2.28
164 | U53A G80C A106C C125U | ≤ -4.2
165 | U53G C87G G133U | ≤ -4.2
166 | U53G C57A C85U A115U A121C | -2.93
167 | C54A G80A C103G A110U A120U C132G | ≤ -4.2
